The values below come from the supplement of paper PMC10126150.

In this data set the test system is ATP. The data set can be described thus: switch fluorescence ratio, 500 uM ATP over buffer (Cy3 cluster intensity, sum of 5 cycles each) (fold (ratio)); higher = stronger signal-on switching upon ATP binding; sequences stand for … in TCGTCGGCAGCGTCAGATGTGTATAAGAGACAGTTTTTTTTTTTTTTTTTTTTTTTTT…TC. As to conditions: aptamer strand: ATP DNA aptamer (quencher-CACCTGGGGGAGTATTGCGGAGGAAGG + anchor), 100 nM annealed; ATP concentration: 500 uM. In short, it runs like this:
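For every switch-domain sequence, the fluorescence ratio is the mean of per-cluster values, each being summed target-cycle Cy3 intensity over summed buffer-cycle Cy3 intensity. Clusters outside 100-1000 RFU were excluded. On a modified Illumina MiSeq flow-cell, the Cy3-labelled switching-strand clusters were annealed to 100 nM quencher-labelled ATP aptamer, imaged in selection buffer and then after 15 min with 500 uM ATP at 22 °C. Five such cycles were run, with NaOH stripping and re-annealing between them.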

± gives the standard deviation of the averaged measurements.
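Note: ATP exposure 15 min at 22 °C before imaging.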

Take ATTGGTAACG: the switch fluorescence ratio was determined as 0.9981 ± 0.0037.

On to ATTGGTAGGC, for which the switch fluorescence ratio was 1.03 ± 0.023.

Take ATTGGTAGTT: the switch fluorescence ratio was determined as 0.9687 ± 0.0067.

Take ATTGGTCAAG: the switch fluorescence ratio was found to be 0.985 ± 0.039.

Take ATTGGTCTGC: the switch fluorescence ratio came out at 1.02 ± 0.04.

As for ATTGGTGTCT, the switch fluorescence ratio amounted to 1.01 ± 0.034.

ATTGGTTGTT: the switch fluorescence ratio is 1.01 ± 0.036.

With ATTGGTTTAA, the switch fluorescence ratio came out at 0.9981 ± 0.002.

On to ATTGGTTTCG, for which the switch fluorescence ratio amounted to 0.9835 ± 0.0051.

As to ATTGGTTTGT, the switch fluorescence ratio amounted to 0.998 ± 0.013.

Regarding ATTGGTTTTT, the switch fluorescence ratio was 1.07 ± 0.19.

Take ATTGTACAGT: the switch fluorescence ratio stood at 1.02 ± 0.025.

Consider ATTGTACGCT, for which the switch fluorescence ratio stood at 1.015 ± 0.0056.

For ATTGTAGAGC, the switch fluorescence ratio worked out at 1.02 ± 0.01.

As to ATTGTAGGGA, the switch fluorescence ratio turned out to be 1 ± 0.015.

Turning to ATTGTGATCT, the switch fluorescence ratio was 0.989 ± 0.021.

As to ATTGTGCATT, the switch fluorescence ratio was determined as 0.979 ± 0.052.

On to ATTGTGCGTA, for which the switch fluorescence ratio is 0.9711 ± 0.0057.

For the sequence ATTGTGTCAC, the switch fluorescence ratio came to 1 ± 0.028.

In the case of ATTGTGTCTA, the switch fluorescence ratio turned out to be 0.9935 ± 0.007.

Take ATTGTGTCTT: the switch fluorescence ratio was 0.99 ± 0.013.

For ATTGTGTGGG, the switch fluorescence ratio turned out to be 0.999 ± 0.036.

Take ATTGTGTTAG: the switch fluorescence ratio came to 1.03 ± 0.055.

Take ATTGTTAATT: the switch fluorescence ratio turned out to be 1.013 ± 0.01.

With ATTGTTACGG, the switch fluorescence ratio was found to be 0.998 ± 0.024.

Consider ATTGTTCTCC, for which the switch fluorescence ratio worked out at 1.04 ± 0.057.

As for ATTGTTGCTG, the switch fluorescence ratio was 0.993 ± 0.061.

ATTGTTTCTA: the switch fluorescence ratio came to 1 ± 0.014.

With ATTGTTTTGA, the switch fluorescence ratio is 0.9818 ± 0.0088.

ATTGTTTTTG: the switch fluorescence ratio turned out to be 1.01 ± 0.026.

With ATTTAAATGT, the switch fluorescence ratio was 1.01 ± 0.023.

With ATTTAAATTA, the switch fluorescence ratio came out at 1.01 ± 0.017.

In the case of ATTTAACCCG, the switch fluorescence ratio was 1.02 ± 0.044.

On to ATTTAACGGG, for which the switch fluorescence ratio stood at 1.006 ± 0.0056.

In the case of ATTTAAGCTT, the switch fluorescence ratio came out at 1.07 ± 0.048.

As to ATTTAAGGCT, the switch fluorescence ratio came out at 0.99 ± 0.012.

For ATTTAATTAC, the switch fluorescence ratio is 1.02 ± 0.0013.

Consider ATTTACAGAT, for which the switch fluorescence ratio was 1.04 ± 0.03.

On to ATTTACATTT, for which the switch fluorescence ratio was determined as 1.02 ± 0.011.

Turning to ATTTACCGAA, the switch fluorescence ratio is 1.05 ± 0.019.

Consider ATTTACTCAT, for which the switch fluorescence ratio amounted to 1.038 ± 0.0012.

ATTTAGGATG: the switch fluorescence ratio was 1.01 ± 0.021.

ATTTAGGCTG: the switch fluorescence ratio amounted to 1.062 ± 0.0089.

Regarding ATTTAGTTTT, the switch fluorescence ratio turned out to be 0.976 ± 0.013.

On to ATTTATCTTT, for which the switch fluorescence ratio amounted to 1 ± 0.032.

Take ATTTATTATG: the switch fluorescence ratio stood at 0.989 ± 0.038.

Regarding ATTTATTGAA, the switch fluorescence ratio is 0.996 ± 0.027.

In the case of ATTTATTTCT, the switch fluorescence ratio came to 1.03 ± 0.064.

For the sequence ATTTCAACGT, the switch fluorescence ratio was 0.9879 ± 0.0034.

Consider ATTTCAATTT, for which the switch fluorescence ratio amounted to 1.01 ± 0.02.

Consider ATTTCAGCTG, for which the switch fluorescence ratio turned out to be 0.982 ± 0.027.

As to ATTTCGAGTT, the switch fluorescence ratio turned out to be 0.972 ± 0.014.

ATTTCGATTA: the switch fluorescence ratio is 0.9965 ± 0.0067.

Take ATTTCGTGGT: the switch fluorescence ratio is 0.9759 ± 0.0096.

Take ATTTCGTTTC: the switch fluorescence ratio is 1.05 ± 0.1.

Take ATTTGAAGAG: the switch fluorescence ratio was 1.01 ± 0.014.

In the case of ATTTGAAGCG, the switch fluorescence ratio stood at 0.998 ± 0.024.

Regarding ATTTGAAGGC, the switch fluorescence ratio was found to be 0.9629 ± 0.0082.

With ATTTGACTCT, the switch fluorescence ratio is 0.986 ± 0.021.

For the sequence ATTTGAGCTG, the switch fluorescence ratio came out at 0.947 ± 0.13.

Regarding ATTTGAGGAT, the switch fluorescence ratio is 0.972 ± 0.027.

Consider ATTTGAGGTT, for which the switch fluorescence ratio was 1.006 ± 0.005.

ATTTGATATG: the switch fluorescence ratio was found to be 0.965 ± 0.031.

On to ATTTGATTCA, for which the switch fluorescence ratio came out at 0.997 ± 0.012.

Consider ATTTGCCCGA, for which the switch fluorescence ratio is 1 ± 0.012.

For the sequence ATTTGCGTTT, the switch fluorescence ratio stood at 0.999 ± 0.019.

With ATTTGGAGG, the switch fluorescence ratio worked out at 0.986 ± 0.013.

On to ATTTGGATCT, for which the switch fluorescence ratio was determined as 0.9725 ± 0.0068.

On to ATTTGGGTTA, for which the switch fluorescence ratio is 1.01 ± 0.019.

Turning to ATTTGGGTTT, the switch fluorescence ratio turned out to be 0.992 ± 0.027.

Turning to ATTTGGTAAA, the switch fluorescence ratio stood at 0.9859 ± 0.009.

With ATTTGGTAAT, the switch fluorescence ratio was 0.952 ± 0.01.

Take ATTTGGTGCT: the switch fluorescence ratio was 0.999 ± 0.018.

In the case of ATTTGGTTAG, the switch fluorescence ratio worked out at 0.987 ± 0.025.

As to ATTTGTAAAG, the switch fluorescence ratio is 1 ± 0.034.

Take ATTTGTATGT: the switch fluorescence ratio came to 0.963 ± 0.013.

Turning to ATTTGTGAGA, the switch fluorescence ratio came to 0.9979 ± 0.0051.

Take ATTTGTGCAG: the switch fluorescence ratio stood at 0.954 ± 0.013.

With ATTTGTGTGG, the switch fluorescence ratio came to 0.973 ± 0.021.

Regarding ATTTGTTAGA, the switch fluorescence ratio is 1.03 ± 0.021.

Consider ATTTGTTTAC, for which the switch fluorescence ratio stood at 1.011 ± 0.0065.

Consider ATTTGTTTAT, for which the switch fluorescence ratio stood at 1.09 ± 0.17.

ATTTGTTTTG: the switch fluorescence ratio turned out to be 0.997 ± 0.053.

For ATTTTAAGTA, the switch fluorescence ratio is 0.987 ± 0.031.

For the sequence ATTTTAGAAT, the switch fluorescence ratio is 1.02 ± 0.03.

As for ATTTTATGAC, the switch fluorescence ratio came out at 1.008 ± 0.0025.

Consider ATTTTATGCC, for which the switch fluorescence ratio stood at 1.01 ± 0.031.

Consider ATTTTATTAG, for which the switch fluorescence ratio worked out at 1.01 ± 0.021.

ATTTTCACC: the switch fluorescence ratio is 1.0095 ± 0.00081.

For ATTTTCGAGT, the switch fluorescence ratio stood at 1 ± 0.021.

For the sequence ATTTTCGGGG, the switch fluorescence ratio came to 1.01 ± 0.039.

On to ATTTTCGTTG, for which the switch fluorescence ratio came out at 0.9666 ± 0.0095.

On to ATTTTGCGGA, for which the switch fluorescence ratio stood at 0.968 ± 0.013.

Turning to ATTTTGCTTT, the switch fluorescence ratio is 0.965 ± 0.021.

For the sequence ATTTTGGCAA, the switch fluorescence ratio worked out at 1.42 ± 0.3.

Take ATTTTGGCTT: the switch fluorescence ratio came out at 0.963 ± 0.037.

Take ATTTTGGGTT: the switch fluorescence ratio came to 1 ± 0.022.

ATTTTGTATG: the switch fluorescence ratio amounted to 0.976 ± 0.026.

For the sequence ATTTTGTCCA, the switch fluorescence ratio amounted to 1.02 ± 0.021.

With ATTTTGTCTC, the switch fluorescence ratio is 1.01 ± 0.013.

Turning to ATTTTTAGGC, the switch fluorescence ratio amounted to 1.11 ± 0.11.

Regarding ATTTTTAGTG, the switch fluorescence ratio worked out at 1.008 ± 0.0068.

Take ATTTTTATGG: the switch fluorescence ratio was found to be 0.996 ± 0.036.

Regarding ATTTTTATTT, the switch fluorescence ratio came to 1.07 ± 0.12.

In the case of ATTTTTCGTT, the switch fluorescence ratio amounted to 1 ± 0.03.

As for ATTTTTCTAG, the switch fluorescence ratio turned out to be 1.01 ± 0.03.

As to ATTTTTCTGC, the switch fluorescence ratio amounted to 1.03 ± 0.039.

As for ATTTTTGAGA, the switch fluorescence ratio is 0.986 ± 0.017.

With ATTTTTGAGG, the switch fluorescence ratio was found to be 1.02 ± 0.017.

As for ATTTTTGGCG, the switch fluorescence ratio is 0.9867 ± 0.0088.

Take ATTTTTGGGC: the switch fluorescence ratio stood at 0.993 ± 0.024.

Take ATTTTTGGTT: the switch fluorescence ratio was found to be 1.01 ± 0.042.

ATTTTTTCGA: the switch fluorescence ratio stood at 0.981 ± 0.014.

Regarding ATTTTTTTT, the switch fluorescence ratio was found to be 0.996 ± 0.024.

Turning to CAAAAAAAAA, the switch fluorescence ratio was 1 ± 0.017.

For the sequence CAAAAAAATG, the switch fluorescence ratio was 0.999 ± 0.03.

On to CAAAAAGATT, for which the switch fluorescence ratio was determined as 1.01 ± 0.017.

On to CAAAAAGGGG, for which the switch fluorescence ratio turned out to be 0.964 ± 0.039.

As to CAAAAATGTT, the switch fluorescence ratio came out at 1.17 ± 0.19.

CAAAACTACT: the switch fluorescence ratio was 1.06 ± 0.011.
